According to the Human Domainome abundance scans (Beltran et al. 2025):
± gives the uncertainty stated by the source.

B1: Apoptosis-associated speck-like protein containing a CARD, residues 114 to 194; numbered along this chain, Q9ULZ3 (parent)
chain: FIDQHRAALIARVTNVEWLLDALYGKVLTDEQYQAVRAEPTNPSKMRKLFSFTPAWNWTCKDLLLQALRESQSYLVEDLER

Variants of: B1
Assay: abundance fitness (aPCA) (normalised: wild type 0, dead -1); higher = more abundant; growth selection in yeast, the domain comes from the species named
Conditions: Homo sapiens

Variant | abundance fitness
FIDQHRAALIARVTNVEWLLDALYGKVLTDEQYQAVRAEPTNPSKMRKLFSFTPAWNWTCKDLLLQALRESNSYLVEDLER [Q72N] | 0.141 ± 0.11
FIDQHRKALIARVTNVEWLLDALYGKVLTDEQYQAVRAEPTNPSKMRKLFSFTPAWNWTCKDLLLQALRESQSYLVEDLER [A7K] | -0.035 ± 0.1
FIDQHRTALIARVTNVEWLLDALYGKVLTDEQYQAVRAEPTNPSKMRKLFSFTPAWNWTCKDLLLQALRESQSYLVEDLER [A7T] | -0.277 ± 0.11
FIDQHRQALIARVTNVEWLLDALYGKVLTDEQYQAVRAEPTNPSKMRKLFSFTPAWNWTCKDLLLQALRESQSYLVEDLER [A7Q] | 0.045 ± 0.084
FIDQHRAALIARVTNTEWLLDALYGKVLTDEQYQAVRAEPTNPSKMRKLFSFTPAWNWTCKDLLLQALRESQSYLVEDLER [V16T] | -0.572 ± 0.095
FIDQHRAALIARVTNVEWLLDALYGKVLTDEQYMAVRAEPTNPSKMRKLFSFTPAWNWTCKDLLLQALRESQSYLVEDLER [Q34M] | -0.329 ± 0.097
FIDQHRAALIARVTNVEWLLDALYGKVLTDELYQAVRAEPTNPSKMRKLFSFTPAWNWTCKDLLLQALRESQSYLVEDLER [Q32L] | -0.95 ± 0.13
FIDQHRAALIARVTNVEWLLDALYGKVLTDEQYQAVRAEPTNPSKMRKLFSFTPAWNWTCKDLLEQALRESQSYLVEDLER [L65E] | -0.142 ± 0.1
FIDQHRAALIARVTNVEWLLDALYGKVLTDEQYQAVRAEPTNPSKMRKLFSFTPAWNWTCKDLLNQALRESQSYLVEDLER [L65N] | -0.548 ± 0.21
FIDQHRAALIARVTNVEWLLDALYGKVMTDEQYQAVRAEPTNPSKMRKLFSFTPAWNWTCKDLLLQALRESQSYLVEDLER [L28M] | -0.767 ± 0.15
FIDQHRAALIARVTNVEWLLDALYGKVFTDEQYQAVRAEPTNPSKMRKLFSFTPAWNWTCKDLLLQALRESQSYLVEDLER [L28F] | -0.896 ± 0.23
FIDQHRAALIARVTNVEWLLDALYGKVLTDEQYQAVRAEPTNPSKMRKLFSFTPAWNWTCKDLLLQALRESQSHLVEDLER [Y74H] | 0.027 ± 0.09
FIDQHRAALIARVTNVEWLLDALYGKVLTDEQYQAVRAEPTNPSKMRKLFSFTPAWNWTCKDLLLQALRESQSSLVEDLER [Y74S] | 0.219 ± 0.053
FIDQTRAALIARVTNVEWLLDALYGKVLTDEQYQAVRAEPTNPSKMRKLFSFTPAWNWTCKDLLLQALRESQSYLVEDLER [H5T] | -0.602 ± 0.086
FIDQHRAALIARVTNVEWLLDALNGKVLTDEQYQAVRAEPTNPSKMRKLFSFTPAWNWTCKDLLLQALRESQSYLVEDLER [Y24N] | -0.078 ± 0.12
FIDQHRAALIARVTNVEWLLDALYGKVLTDEQYQRVRAEPTNPSKMRKLFSFTPAWNWTCKDLLLQALRESQSYLVEDLER [A35R] | -0.491 ± 0.059
FIDQHVAALIARVTNVEWLLDALYGKVLTDEQYQAVRAEPTNPSKMRKLFSFTPAWNWTCKDLLLQALRESQSYLVEDLER [R6V] | -0.416 ± 0.07

Variant | abundance fitness
FIDQHGAALIARVTNVEWLLDALYGKVLTDEQYQAVRAEPTNPSKMRKLFSFTPAWNWTCKDLLLQALRESQSYLVEDLER [R6G] | -0.501 ± 0.057
FIDLHRAALIARVTNVEWLLDALYGKVLTDEQYQAVRAEPTNPSKMRKLFSFTPAWNWTCKDLLLQALRESQSYLVEDLER [Q4L] | -0.352 ± 0.059
FIDVHRAALIARVTNVEWLLDALYGKVLTDEQYQAVRAEPTNPSKMRKLFSFTPAWNWTCKDLLLQALRESQSYLVEDLER [Q4V] | -0.165 ± 0.063
FIDQHRAALIARVTNVEWLLDALYGKVLTDEQYQAVRYEPTNPSKMRKLFSFTPAWNWTCKDLLLQALRESQSYLVEDLER [A38Y] | -1.08 ± 0.48
FIDQHRAALIARVTNVEWLLDALYGKVLTDEQYQAVRNEPTNPSKMRKLFSFTPAWNWTCKDLLLQALRESQSYLVEDLER [A38N] | -0.308 ± 0.21
FIDQHRAALIARVHNVEWLLDALYGKVLTDEQYQAVRAEPTNPSKMRKLFSFTPAWNWTCKDLLLQALRESQSYLVEDLER [T14H] | -0.644 ± 0.22
FIDQHRAALIARVPNVEWLLDALYGKVLTDEQYQAVRAEPTNPSKMRKLFSFTPAWNWTCKDLLLQALRESQSYLVEDLER [T14P] | -0.815 ± 0.13
FIDQHRAALIAFVTNVEWLLDALYGKVLTDEQYQAVRAEPTNPSKMRKLFSFTPAWNWTCKDLLLQALRESQSYLVEDLER [R12F] | -0.655 ± 0.21
FIDQHRAALIARVTNVEWLLDALYGKVLTDEQYQAVRAEPTNPSKMRKLFSFTPAWNYTCKDLLLQALRESQSYLVEDLER [W58Y] | 0.203 ± 0.21
FIDQHRAALIARVTNVEWLLDALYGKSLTDEQYQAVRAEPTNPSKMRKLFSFTPAWNWTCKDLLLQALRESQSYLVEDLER [V27S] | -0.583 ± 0.074
FIDQHRAALIARVTNVEWLLDALYGKVLTDEQYQAVRAEPTNPNKMRKLFSFTPAWNWTCKDLLLQALRESQSYLVEDLER [S44N] | -0.511 ± 0.36
FIDQHRAALIARVTNVEWLLDALYGKVLTDEQYQAVRAEPTNPVKMRKLFSFTPAWNWTCKDLLLQALRESQSYLVEDLER [S44V] | -0.947 ± 0.12
FIDQHRAALIARVTNVEWLLDALYRKVLTDEQYQAVRAEPTNPSKMRKLFSFTPAWNWTCKDLLLQALRESQSYLVEDLER [G25R] | -0.445 ± 0.049
FIDQHRAALIARVTNVEWLLDTLYGKVLTDEQYQAVRAEPTNPSKMRKLFSFTPAWNWTCKDLLLQALRESQSYLVEDLER [A22T] | -0.146 ± 0.073
FIDQHRAALIARVTNVEWLLDALYGKVLTDEQYQAVRAEPTNMSKMRKLFSFTPAWNWTCKDLLLQALRESQSYLVEDLER [P43M] | -0.138 ± 0.07
FIDQHRAALIARVTNVEWLLDALYGKVLTDEQYQAVRAEPTNPSKMRKLFSFTPAWNWTCKDLLLQNLRESQSYLVEDLER [A67N] | -0.278 ± 0.22
FIDQHRAALIARVTNVEWLLDALYGKVLTDHQYQAVRAEPTNPSKMRKLFSFTPAWNWTCKDLLLQALRESQSYLVEDLER [E31H] | -0.823 ± 0.22
